How the values were obtained:
[1] = molecular target: wild-type EGFR expressed on cells (human), P00533; assay: flow cytometry, A431 cells; conditions: remark: other sources report otherwise
[2] = molecular target: wild-type EGFR expressed on cells (human), P00533; assay: flow cytometry, F98-EGFRwt cells; conditions: remark: other sources report otherwise

Binder | % positive [1] | MFI [1] | % positive [2] | MFI [2]
29D5 (antibody, V domains shown) VH: QVTLKESGPVLVKPTETLTLTCTVSGFSLSNPRMGVSWLRQPPGKALEWFAHIFSTDEKSYSPSLRGRLTVSKDTSKSQVVLTLTNMDPVDTATYYCARDSSNYEGYFDYWGQGTLVTVSS VL: KIVMTQSPATLSVSPGERATLSCRANQIVSSNLAWYQQKPGQAPRLLVFGTSTRATGIPIRFSGSGSGTEFTLTVSSLQSEDFAVYVCQQYNDWPFTFGPGTKVDIK | 0.4% | 531 | 1.3% | 185
42G9 (antibody, V domains shown) VH: QVTLKESGPVLLKPTETLTLTCTVSGFSLSNPRMGVSWIRQPPGKALEWFAHIFSTDEKSLKLSLRSRLTLSKDTSKSQVVLTMTNMAPVDSATYYCARDSSNYEGYFDFWGQGTLVTVSS VL: EVVLTQSPATLSVSPGERATLSCRASQSVRSNLAWYQQKSGQAPRLLIYGSTIRATGVPARFSGSGSGTEFTLTISSLQSEDFAVYYCQQYSDWPFTFGPGTKVDIK | 0.3% | 538 | 1.6% | 185
46E10 (antibody, V domains shown) VH: QVTLKESGPVLVKPTETLTLTCTVSGFSLSNARMGVSWIRQPPGKALEWLAHIFSTDEKSIRRSLRSRLTLSKDTSKSQVVLIMTNMDPVDTATYYCARDSSNYEGYFDYWGQGTLVTVSS VL: EVVMTQSPPNLSVSPGERATLSCRASQSVTSNFAWYQQRPGQSPRLLLYGASTRATGVPGRFSGSGSGTENILTISSLQSEDFAVYFCQQYKDWPFTFGPGSKVDIK | – | 560 | 1.6% | 187
49B11 (antibody, V domains shown) VH: QVTLKESGPVLVKPTETLTLTCTVSGFSLSNVRMGVSWIRQPPGKALEWFAHIFSSDEKSIRRSLRSRLTLSKDTSKSQVVLTMTNMDPVDTATYYCARDSSNYEGYFDYWGQGTLVTVSS VL: EMEVTQSPATLSVSPGERATLSCRASQNIGSDLAWYQQQSGQAPRLLISGASTRATGVPTRFSGSGSGTDFTLTITSLQSEDFAVYYCQQYNDWPFTFGPGTKVDIK | 0.8% | 599 | 1.3% | 185
12H6 (antibody, V domains shown) VH: QVTLKESGPVLVKPTETLTLTCTVSGFSLSNARMGVSWIRQPPGKALEWLAHIFSTDEKSIRRSLRSRLTLSKDTSKSQVVLTMTNMDPVDTATYYCARDSSNYEGYFDYWGQGTLVTVSS VL: EVVMTQSPATLSVSPGERATLSCRASQGVSSNFAWYQQRPGQSPRLLLYGASTRATGVPGRFSGSGSGTENILTISSLQSEDFAIYFCQQYKDWPFTFGPGSKVDIK | 0.8% | 569 | 1.9% | 188
19A9 (antibody, V domains shown) VH: QVTLEESGPVLVKPTETLTLTCTVSGFSLSNARMGVSWIRQPPGKAPEWFAHIFSTDEKSLRLSLRSRLTLSKDTSKSQVVLTMTNMDPVDTATYYCARDSSNYEGYFDYWGQGTLVTVSS VL: EVVMTQSPATLSVSPGERATLSCRASQSVNRNLAWYQQKPGQAPRLLIFGTSTRATGIPARFSGSGSGTEFTLTIDSLQSEHSGLYYCQQYNDWPFTFGPGTKVDIK | – | 578 | 1.6% | 168
21E7 (antibody, V domains shown) VH: QVTLEESGPVLVKPTETLTLTCTVSGFSLSNARMGVSWIRQPPGKAPEWFAHIFSTDEKSLRLSLRSRLTLSKDTSKSQVVLTMTNMDPVDTATYYCARDSSNYEGYFDYWGQGTLVTVSS VL: DVVLTQSPATLSVSPGERATLSCRASQSVNSNLAWYQQNPGQAPRLLIFGSSTRATGIPASFSGSGSGTEFTLTINSLQSEHSAVYYCQQYNDWPFTFGPGTKVDIK | 1.1% | 603 | 1.3% | 184
32A10 (antibody, V domains shown) VH: QVTLKESGPVLVKPTETLTLTCTVSGFSLSNARMGVSWIRQPPGKALEWLAHIFSTDEKSIRRSLRSRLTLSKDTSKSQVVLTMTNMDPVDTATYFCARDSSNYEGYFDYWGQGTLVTVSS VL: EVVMTQSPATLSVSPGERVTLSCRASQSVSSNFAWYQQRPGQAPRLLLYGATTRATGLPGRFSGSGSGTENILTISSLQSEDFAIYFCQQYKDWPFTFGPGSKVDIK | – | 531 | – | 185
14C11 (antibody, V domains shown) VH: QVTLKESGPVLVKPTETLTLTCTVSGFSLNNARMGVSWIRQPPGKALEWFAHIFSTDEKSFRTSLRSRLTLSKDTSKSQVVLTMTNMDPVDTATYYCARDSSNYEGYFDYWGQGILVTVSS VL: EIVMTQSPATLSVSPGERATLSCRASQSVSNNLAWYQQKPGQAPRLLIYGASTRATGVPARFSGSDSGTEFSLTISSLQSEDFAVYFCQQYKDWPFTFGPGTKVEIK | 0.8% | 580 | 1.3% | 185
30D8 (antibody, V domains shown) VH: EVQLVESGGGLVKPGGSLRLSCEASGFTFSDAWMSWVRQAPGKGLEWVGRIKSKTDGGTTDYVVPLNGRFIISRDDSRNTLYLQLNNLKTEDTAVYYCTTVPGSYGYWGQGTLVTVSS VL: DIVMTQSPLSLPVTPGEPASISCRSSQSLLHNKRNNYLDWFLQKPGQSPQLLIYLASNRASGVPDRFSGGGSGTDFTLKISRVEAEDVGVYYCMQAQQTPITFGQGTRLEIK | 1.3% | 269 | 1.7% | 280
20E12 (antibody, V domains shown) VH: EVNLVESGGGLVKPGGSLRLSCEASGFTFSYAWMSWVRQAPGKGLEWVGRIKSIADGGATDYAAPVRNRFTISRDDSRNTLYLEMHSLKTEDTAVYYCTTIPGNDAFDMWGQGTMVTVSS VL: DIVLTQSPLSLSVTPGEPASISCRSSQSLLYSNGKNYLDWFLHKPGQSPQLLIYLGSNRASGVPDRFSGSGSGIDFILKISRVEAEDVGVYYCMQAQQTPITFGQGTRLEIK | 2.6% | 302 | 3.4% | 348
32G8 (antibody, V domains shown) VH: EVNLVESGGGLVKPGGSLRLSCEASGFTFSYAWMSWVRQAPGKGLEWVGRIKSITDGGVIDYAAPVRNRCTISRDDSRNTLYLEMHSLKTEDTAVYYCTTIPGNDDFDMWGQGRMVTVSS VL: DIVLTQSPLSLSVTPGEPASISCRSSQSLLYSNGKNYLDWFLHKPGQSPQLLIYLGSNRASGVPDRFSGSGSGIDFILKISRVEAEDVGVYYCMQAQQTPITFGQGTRLEIK | – | 271 | 1.6% | 301
20G5 (antibody, V domains shown) VH: EVQLVESGGDLVKPGGSLRLSCAASGFTFTNAWMSWVRQAPGKGLEWVGRIKSKIDGGTTDYAAPVKGRFIISRDDSKNTLSLQMNSLKTEDTAMYYCTTAPGGPFDYWGQGSLVTVSS VL: DIVLTQSPLSLPVTPGEPASISCRSSQSLLYSDRRNYLDWFLQKPGQSPHLLIYLGSYRASGVPDRFSGSGSGTDFTLKISRVEAEDVGVYYCMQALQIPITFGQGTRLEIK | – | 391 | 12.6% | 1070
26B9 (antibody, V domains shown) VH: EVQLVESWGVLVKPGGSLRLSCAASGFIFNNAWMSWVRQAPGKGLEWIGRIKSKSDGGTTDYAAPVKDRFTISRDDSKDTLYLQMNGLKTEDTAVYFCTTAPGGPFDYWGQGTLVTVSS VL: DIVLTQSPLSLPVTPGEPASISCRSSQSLLHRDGFNYLDWFLQKPGQSPQLLIYLASSRASGVPDRFSGSDSGTDFTLKISRVEAEDVGVYYCMQALQTPITFGQGTRLEIK | 1.7% | 276 | 2.3% | 298
11B11 (antibody, V domains shown) VH: QVTLKESGPVLVKPTETLTLTCTVSGFSLSNAKMGVSWIRQPPGKALEWLAHIFSTDEKSIRRSLRSRLTMSKDTSKSQVVLTMTNMDPVDTATYYCVRDSSNYEGYFDYWGQGTLVTVSS VL: EVLMTQSPATLSVSPGERATLSCRASQSVSTNFAWYQQRPGQAPRLLLFGASTRATGIPGRFSGSGSGTENILTISSLQSEDFAIYFCQQYKDWPFTFGPGSKVEIK | – | 589 | 1.7% | 187
12B2 (antibody, V domains shown) VH: QVTLKESGPVLVKPTETLTLTCTVSGFSLSNPRMGVSWIRQPPGKALEWLGHIFSSDEKSYRLSLRSRLSISKDTSKSQVVLTMTNMDPVDTATYYCVRDSSNYGGYFDYWGQGTLVTVSS VL: EVVMTQSPATLSVSPGERATLSCRASQSVINNLAWYQQKPGQAPRLLIYGTSTRATDIPARFSGSGSGTEFTLTISSLQSEDFAVYYCQDYNNWPFTFGPGTKVDIK | 0.8% | 571 | 1.5% | 185
11F10 (antibody, V domains shown) VH: QVTLKESGPVLVKPIETLTLTCTVCGFSLSNPRMGVSWIRQPPGKALEWLGHIFSSDEKSYRLFLRSRLSISKDTSKSQVVLTMTNMDPVDTATYYCARDSSDYEGYFDYWGQGTLVTVSS VL: EIVMTQSPATLSVSPGERTTLSCRASQSVGSNLAWYQQKPGQAPRLLIYGASTRASGVPARFSGSGSGTEFTLTISSLQSEDFAVYSCQEYNNWPFTFGQGTKVEIK | 1.1% | 582 | 1.6% | 187
20B9 (antibody, V domains shown) VH: QVTLKESGPVLVKPTETLTLTCTVSGFSLSNARMGVSWIRQPPGKALEWLGHIFSTDEKSYSTSLRGRITISKDTSRGLVVLTLTNMDPVDTATYYCARDSSNYEGYFDFWGPGFLVTVSS VL: EIVMTQSPATLSVSPGERATLSCRVSQSIGANLAWYQQKFGQAPRLLIYGASTRATGIPVRFSGGGSGTEFTLTISSLQSEDFAIYSCQQYIYWPFTFGPGTTVDIK | – | 558 | 1.8% | 189
21E11 (antibody, V domains shown) VH: QVTLKESGPVLVKPTETLTLTCTVSGFSLSNVRMGVSWIRQPPGKALEWFAHIFSSDEKSIRRSLRSRLTLSKDTSKSQVVLTMTNMDPVDTATYYCARDSSNYEGYFDFWGQGTLVTVSSN VL: DMVVTQSPATLSVSPGERATLSCRASQSVGSDLAWYQQPPGQSPRLLIYGASTRATGVPARFSGSGSGTDFTLTITSLESEDFAVYYCQQYNDWPFTFGPGTKVDIK | – | 555 | 1.3% | 184
